In patent US7435574B2 (Degussa AG, priority 2001, dated 2008):

What was measured:
[1] = biological target: NADH oxidase (NOX) from Lactobacillus brevis DSM 20054, wild type, SEQ ID NO:2 (Levilactobacillus brevis, UniProt Q03Q85); settings: higher NADH concentrations (up to 0.5 mM); photometric
[2] = determination of the KM value for NADH; assay type: biochemical
[3] = NAD+ regeneration coupled with R-specific alcohol dehydrogenase recADHG37D, oxidation of (R,S)-phenylethanol, GC analysis; assay type: biochemical; settings: 50 mM (R,S)-phenylethanol, 2 mM NADH, pH 7.0, 1 U recADHG37D and 2 U NADH oxidase, FIG. 4
Experimental: This may be necessary for example if NAD-dependent dehydrogenases are used for the oxidation, as has been shown in a general way hereinbefore (reaction scheme 1).
(R,S)-phenylethanol was used as alcohol, and the reaction was carried out as a batch reaction.
As a control the same experiment was carried out, but without the addition of NADH oxidase.

[4] = temperature stability of the NADH oxidase (storage at 30° C. and 42° C., residual activity); assay type: physicochemical
Experimental: In order to determine the temperature stability enzyme samples were stored at 30° C. and 42° C., samples were taken at various times, and the residual activity was measured. […] At 42° C. the enzyme deactivates initially (up to ca. 120 minutes) relatively quickly, following which it appears to be stable at ca. 50% residual activity over a relatively long time (at least 16 hours).

[5] = substrate: NC(=O)C1=CN([C@@H]2O[C@H](COP(=O)(O)OP(=O)(O)OC[C@H]3O[C@@H](n4cnc5c(N)ncnc54)[C@H](O)[C@@H]3O)[C@@H](O)[C@H]2O)C=CC1; assay: purified protein, by the assay type; settings: other: NADH varied 0.0013 to 0.52 mM, photometric, 340 nm, 30° C., 100 mM potassium phosphate pH 7.5, 1 mM DTT (standard test), enzyme purified by 4 chromatographic steps
[6] = temperature optimum of the NADH oxidase; assay type: biochemical; settings: FIG. 3
[7] = pH stability of the NADH oxidase (8 hours incubation in buffers, residual activity); assay type: physicochemical
Experimental: The pH optimum was measured in the range pH 4.0 to 10.0. Different buffers were used depending on the pH value. As a check on the influence of the buffer, when changing the buffer this pH value was measured twice in the different buffers (pH 7.0 and pH 8.5). 0.1 M citric acid/Na2PO4 was used for the range pH 4.0-7.0, 0.1 M TEA was used for the range 7.0-8.5, and 0.1 M glycine/NaOH was used for the range pH 8.5-10.0.
At pH 8.5 the enzyme is still up to 100% stable after 8 hours in TEA/NaOH buffer as well as in glycine/NaOH buffer. The figure illustrates that the enzyme stable in the slightly alkaline range (pH 8-9) is also stable in a wider range. This range is useful for application purposes if the NADH oxidase for the oxidation is to be coupled with an NAD-dependent dehydrogenase, since the pH optimum of many dehydrogenases for the oxidation lies in a slightly alkaline range.

| excess inhibition by NADH [1] | excess (substrate) inhibition at higher NADH concentrations ([2]; NADH up to 0.5 mM) | NADH concentration at which maximum activity is reached ([2]; NADH varied from 0.0013 to 0.52 mM) | oxidation of the R-alcohol of (R,S)-phenylethanol in the coupled reaction [3] | temperature of maximum activity [6] | Molecule | time for which the enzyme is in practice stable ([4]; storage at 30° C.) | half-value time of deactivation ([4]; storage at 30° C., after ca. 400 minutes) | residual activity ([4]; storage at 42° C., after initial deactivation (up to ca. 120 minutes), stable for at least 16 hours) | Km [5] | first stability optimum (pH) ([7]; 8 hours incubation, FIG. 2) | second stability optimum (pH) ([7]; 8 hours incubation, FIG. 2) | stability in the range pH 5.5-7.5 ([7]; 8 hours incubation, pH 5.5-7.5) | stability (residual activity) after 8 hours at pH 8.5 ([7]; pH 8.5, TEA/NaOH buffer as well as glycine/NaOH buffer, 8 hours) |
| --- | --- | --- | --- | --- | --- | --- | --- | --- | --- | --- | --- | --- | --- |
| weak excess inhibition | – | – | – | – | NC(=O)C1=CN([C@@H]2O[C@H](COP(=O)(O)OP(=O)(O)OC[C@H]3O[C@@H](n4cnc5c(N)ncnc54)[C@H](O)[C@@H]3O)[C@@H](O)[C@H]2O)C=CC1 [NADH] | – | – | – | – | – | – | – | – |
| – | only a weak excess inhibition | 0.1 mM | almost completely oxidised | 40 °C | NADH oxidase (NOX) from Lactobacillus brevis DSM 20054, wild type, SEQ ID NO:2 (Levilactobacillus brevis ATCC 367) (protein) MKVTVVGCTHAGTFAIKQILAEHPDAEVTVYERNDVISFLSCGIALYLGGKVADPQGLFYSSPEELQKLGANVQMNHNVLAIDPDQKTVTVEDLTSHAQTTESYDKLVMTSGSWPIVPKIPGIDSDRVKLCKNWAHAQALIEDAKEAKRITVIGAGYIGAELAEAYSTTGHDVTLIDAMDRVMPKYFDADFTDVIEQDYRDHGVQLALSETVESFTDSATGLTIKTDKNSYETDLAILCIGFRPNTDLLKGKVDMAPNGAIITDDYMRSSNPDIFAAGDSAAVHYNPTHQNAYIPLATNAVRQGILVGKNLVKPTVKYMGTQSSSGLALYDRTIVSTGLTLAAAKQQGVNAEQVIVEDNYRPEFMPSTEPVLMSLVFDPDTHRILGGALMSKYDVSQSANTLSVCIQNENTIDDLAMVDMLFQPNFDRPFNYLNILAQAAQAKVAQSVNA | ca. 400 minutes | ca. 18 hours | ca. 50% | 24 µM | 5.0 pH | 8.5 pH | moderately stable | up to 100% |
